The supplement of paper PMC12636428

System: Saccharomyces cerevisiae
Experiment: transcriptional activation domain activity (GFP:mCherry ratio, weighted mean of sorted bins, harmonized to initial dataset scale) (arbitrary fluorescence ratio units); higher = stronger transcriptional activation
Settings: beta-estradiol 1 µM; induction time 4 h
Outline: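 Values are activation activity, found as the read-weighted mean of bin median fluorescence, averaged across barcodes and then mapped linearly onto the initial dataset scale. Barcoded protein tiles fused to an estradiol-inducible synthetic transcription factor were integrated at the URA3 locus of GFP-reporter yeast diploids. Cells were induced for 4 hours at 30 °C with 1 uM beta-estradiol in SC, sorted into 8 bins by GFP:mCherry ratio, and barcode-sequenced, with tiles under 50 reads discarded.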

Sequence: LATTDLTHRQNGEEPIQNEIAKLFHSGGDSVVDILFSQTSATEFVTVGGTGNV
- transcriptional activation domain activity: 64400

Sequence: PDDHKLLKALVFFLWVFDGLHIALICHAFYLITVTNFGNVLALLTIPRTLPIA
- transcriptional activation domain activity: 58400

Sequence: MCVWELVLVLVVWCFRCFSFFHPLHFLPWLLYPSPLISLFFCLFYPLLFFVFF
- transcriptional activation domain activity: 37900

Sequence: NLDFFDFENSFGDLWNMDEFYGDVAWDLSSDPPLDPLFIGELYSASGQYGDLQ
- transcriptional activation domain activity: 159000

Sequence: MFGIGFFSRVLPWLWLWLWLYFFFFFFLYIFCMHYEQFSLSLTYNKLPFSLAL
- transcriptional activation domain activity: 65900

Sequence: RDGMRQGTHSTKGRADVRGSTRKAAPQKGRGRARMGSLRAPHIRGGGIAFGPK
- transcriptional activation domain activity: 24000

Sequence: DEDDDDDDNDDADADDEPARRPKKSKSSQKSRSKKPAAKRAKVNGTTPAAAHS
- transcriptional activation domain activity: 20000

Sequence: MLNNSSSFFVVVPIIYTLIHYLSMLFLFGCLIHLFPYIPTCILQLLLFLLYLY
- transcriptional activation domain activity: 44500

Sequence: GFCMASKTLALVLRHLRRYRWCLVARIRRKATEISTRFCALGGILIIYIRNVS
- transcriptional activation domain activity: 73500

Sequence: EETPVTEAPKAVEESKPVEEVKSEQKEGAAETAKDEPAQETATERSTESTPAS
- transcriptional activation domain activity: 34900

Sequence: HLLYVYLVLIAVVISSYRCFLNVSTRSIVICLLTHAFWPPLTFIIVCSAFWIP
- transcriptional activation domain activity: 73100

Sequence: DGAGAKDDEEDAGRMRTRGNGKRKGKGRAQDEAEAEAERVRAAEAFARRGAAK
- transcriptional activation domain activity: 43300

Sequence: GRKKRAVKKKAEGAGAGAGGGGGGAEAEGKVETKGKKAAKPKSRTKAGAKAKG
- transcriptional activation domain activity: < 6570

Sequence: CLHFQFSLLFLLCLYVCVGWIFYACILSYLPPLLFIVSFVTILQRTAFCFGEE
- transcriptional activation domain activity: 45000

Sequence: MLLFYILLSFSISSFFVCSLSNMLFFYMHHLIYMLTIFFYLLFNPITPILFFV
- transcriptional activation domain activity: 51300

Sequence: LLLLIWMVTRLVRTYTTIMFRCLGPPDHVAKMHRLLLGLSTCLQLSVYVLITS
- transcriptional activation domain activity: 47300

Sequence: DNMHVPGRFKDPNFLFYIQTMISSYALPFVRKAAILMHVRYGVELPSIPFECV
- transcriptional activation domain activity: 75400

Sequence: PKAEAPKAEAPKPKEEESKKETAKQESKPEPKKADASKIAAPAASKPPAPKPS
- transcriptional activation domain activity: 49200

Sequence: MIITLSRLFFFFFFFPVRFLAFLNHFFLFFFFFWLRWGLSVCFFILSWPGEKS
- transcriptional activation domain activity: 46400

Sequence: MLIIGRIARWYIHPIAIVWFYLLHVSHFLYFLLVAEFQPRYIHVYLYLYLLST
- transcriptional activation domain activity: 47400

Sequence: HGEERGWIYLVQYRGIAWLLRRLACCRFEILAIFHLSNLNHPVNVLADSYDRE
- transcriptional activation domain activity: 19700

Sequence: SSRYIQTSTLTRLLLTYRQWIFVVVYSHLLLLDHSSQIWWRWMNIFFTLVIWS
- transcriptional activation domain activity: 62300

Sequence: DLIQTKQLQNALLTHPRRNTLTGLQFTMQNVLDLLKYILTMILYRPSQFRWAA
- transcriptional activation domain activity: 82500

Sequence: TLVEINGNQIRGSSELMDKDNIYLHLRRIFTCFQIEFLKLTGLPFLLREKLPG
- transcriptional activation domain activity: 63400

Sequence: QPSQVPQEDQPEHEPERKRRPGRPRGSKNRKPRADSAKQPQQQQQQQQQPHPQ
- transcriptional activation domain activity: 59500

Sequence: YIAPCGSWTPYMNLMLGGTVCIFIGFDVFSPFSYRGFITNYFGLFWFCIMFIF
- transcriptional activation domain activity: 53600

Sequence: ALDSEQRRKGMSKPAPKKRGRKPNPNKKPKPPRDPNEPPKKRGRKPNPNKKVT
- transcriptional activation domain activity: 42300

Sequence: GYRIVKMLGTVYGITVRSRNWAAGLGMVLKSVVGGELRWFTNLLYTARNDAIG
- transcriptional activation domain activity: 48300

Sequence: EDEETARPKRKSPSAVLKSHTARVSRAVFGRDAKGASAYSCGFDSTVRTWDVE
- transcriptional activation domain activity: 49700

Sequence: MELVLHCFYLGAIRKPGHTYDSWSSDTPFQLSMIGDSNLLIIWLWLLIPWRSF
- transcriptional activation domain activity: 80500

Sequence: EKDKENDKGEKGEGEKKGENRRGRRRGGRGRGGGGDKDKEKEKDGGGGGGAKR
- transcriptional activation domain activity: 47000

Sequence: NKMKVHINKTNYELDSKEAVMAVLGTHRVEVSVLCLLYLVLRRHKKILDFASS
- transcriptional activation domain activity: 48200

Sequence: YSLNIFIFGNGRYGSTIQANLHGLRSFIRLVPKDCLALIRHLHLHIFFSGLPD
- transcriptional activation domain activity: 54800

Sequence: AAAGRRGPGKRKGSRTSPGTAGGGGGRGGRGGGGRGGGARGGGAGGEAAGGAT
- transcriptional activation domain activity: 29900

Sequence: STALRTWPGLMYLSMYNFRAIKSLVASLMLPNQQARDIIIVLLYSLLRIKSPA
- transcriptional activation domain activity: 65100

Sequence: MSLAYLILGFPIPPFLPYFLDVVLSPLSRFSPLPLVFPFVLWCPTSLPLFTSF
- transcriptional activation domain activity: 51400

Sequence: IIYVPQARLMNFFNALTTQSFLYFWAVCLMRLHIAAFLPNLHNGKPYLITVYT
- transcriptional activation domain activity: 47500

Sequence: PKPVPEQEMKDAAEKPEPEETKAAGEVKPEDAMEVDQTSKPAKSKKGKIVKRR
- transcriptional activation domain activity: 24400

Sequence: FSLLSFCCLLVPLLLSYIPLTTSHVFPILLFFFTLPLTSALPLLLLYLFHELL
- transcriptional activation domain activity: 47000

Sequence: FIQLVHLWRLILNYGPTGPFNIRMPSHLTWVVIKQHIQQYFFRCLCLLNKDGA
- transcriptional activation domain activity: 49100

Sequence: RSRRAHPRTTSSRASPSCARSSRAPPRATSSSASTTSSTGTRSRTTTPSTSPR
- transcriptional activation domain activity: 18000

Sequence: FSLSLHICFIFSRLIMLHCIFSLLKMIPFCAKFFCFFLFLFLFSPFLLYILFV
- transcriptional activation domain activity: 54000

Sequence: AKNLKYLFKVVLSMKGVPSFESSCKIKLLGIHFYYDQVYVYSLSMPMWDVFVF
- transcriptional activation domain activity: 73300

Sequence: MYHISIQLLSVFISPSTPLFPDFLQISISFHLYSFFLFAIVIFFYFICLFLFV
- transcriptional activation domain activity: 61100

Sequence: EKPKPEESPKGRGKSSGEPAPIPPSNGAADSKPSSAGAGNGSGSGSGDGGRKG
- transcriptional activation domain activity: 39800

Sequence: MGCVRHEKVIDITLKLFYKKTGGRYLKSEYNLFAVLVYLCLYRLPTDLPFATL
- transcriptional activation domain activity: 53200

Sequence: IKIIQLLGTRYLYFMIKELRGALLRGYQMHVLGYTVHAILASIDLNPACLKAC
- transcriptional activation domain activity: 77200

Sequence: LLFFFSFFFVCFKYFPPFFFSSFLSFSFYCLSILTYPIHYPPPVFGISGSFFV
- transcriptional activation domain activity: 51800

Sequence: MAAAPAAKACAQCNKAETVSGGSDGEEGSSNLHPCNMCKSVLYCSRDCKKAHG
- transcriptional activation domain activity: 8830

Sequence: TSVLPIIAVHCAYKTPISDYILAFCYLLPYIYHSMGYLVRWLYLGLRVIFVAK
- transcriptional activation domain activity: 70400

Sequence: LLSEESLRTMGLRTVKDILLRCASERAILTLVDFPLRVLVMVAQIRTGLWVRN
- transcriptional activation domain activity: 36800

Sequence: NDLFAWPWGNPIDLDVAIALQETSIGCYNKRTTVFYANSCNTLLSLLVNKFLL
- transcriptional activation domain activity: 33300

Sequence: SASSPAATSPSACPTSSPRLRSPSSPSPSSQPPASPCTRSCPPPRPAARTARP
- transcriptional activation domain activity: 47500

Sequence: ASIISQRSGIVRALSRLMIFDRKLRVKDTHLRRLQHRIVIQSLVFGAFFSCVG
- transcriptional activation domain activity: 54700

Sequence: PKQYCVRPNAARLEPGERVEVQVLLQPMKEDPPEDTKCRDKFLIQSAAIPPQH
- transcriptional activation domain activity: 39200

Sequence: TPEFHGQADVDTGILTLKKDEDIRDHPDAARFAEESKAARITKRGAREGLEHV
- transcriptional activation domain activity: 22000

Sequence: ASSSAPAAEPEAAAEEAPKKEEAAPAKEEPAAATTATAAAAGESSEAPKEAAP
- transcriptional activation domain activity: 33900

Sequence: VRNNSENASHNNETGPIETELAQTISNEFWTAYNLGWEELMSQPDYKYLFDTQ
- transcriptional activation domain activity: 117000

Sequence: TWILNIPWPQTHMVAVLSLAGFLYFLILDIYEYMCYSYLVLLGTMWFVDIMFF
- transcriptional activation domain activity: 73600

Sequence: FCMLNHWYARSWGTYLWLGLLLTDLDVTYKYKKWLYAHPGTYYPLLTFAWLCV
- transcriptional activation domain activity: 63000

Sequence: KGEKDKENDKGEKGEGEKKGENRSRRRRGGRGRGSGDKDKEKDKDGGGGAKKA
- transcriptional activation domain activity: 27800

Sequence: PKWHRYEDYEALFRVRNLCFPLILSGDIQLTLEYWWSIFSTSILRRPIFELNI
- transcriptional activation domain activity: 69600

Sequence: PSEEKTVQKPDTAVAPPEDKAEPTPDATKPKEKKSRKKSKKAAEEKADGASTS
- transcriptional activation domain activity: 25300

Sequence: LLVLLLVLLLVLLLILLLILLILLVYLLLLLLLVLLFFLLLLLLLFTFILHFL
- transcriptional activation domain activity: 46200

Sequence: MGSFLPFLFFSFCYTFVCYFFSIIALVVFVYFTLAVEFFFFFFGCLRCLLLWL
- transcriptional activation domain activity: 57600

Sequence: ASEKKEASQRPPPAVEKKTVPKPSSKPENRPGPSKPVVPKADSKKEAPKPAPS
- transcriptional activation domain activity: 9920

Sequence: LALLTPGPSHVDPEYGTFQSLLFFFGLCTFLTTLTGIASSYIFWLYCSVLLLA
- transcriptional activation domain activity: 52100

Sequence: GMHSGDGEFVPFYAPVVVEGPVEAWLLEIEATMRVTLRKLLLGCILALKKAKK
- transcriptional activation domain activity: 61300

Sequence: ADSDRHKKHKSSSSSSKSRHHDRDDDRDDNDKHSRRSHHKSSSSRHDRDRERG
- transcriptional activation domain activity: 46300

Sequence: TEVHVARERIMSYALNLFQLAAGPSEYLANLQTGYHYVACLQWLLRFKIFALV
- transcriptional activation domain activity: 57300

Sequence: LLLFLFLRICFGLHVLATSAWFFYPSFLYGLSLITLPLFYGGVDPSVPWLFDG
- transcriptional activation domain activity: 48900

Sequence: GPLSDEKSVKVSTFSELIGNDWQSMNFDLENNSREVTLNATSLLNENRLNQDS
- transcriptional activation domain activity: 48600

Sequence: WLAHSKKKTCDVCKHPYSFTKVYATDMPSRLPPVLLLRRVAQQSFFAMLFAVR
- transcriptional activation domain activity: 37900

Sequence: LSLLLQDRPRFIFGFSFLLLKSIWCIGFYFINSRLKCMCILYILLIDILYFTF
- transcriptional activation domain activity: 49800

Sequence: GQATLRLLKESGRQSHAPIFIVGAFDGNRRQIGEGMGSSIKMAEFRAAEDALR
- transcriptional activation domain activity: 26300

Sequence: MFCLRSWIPILFFLLRTNASPVYLILFLSATYFLNRPCVYCSFLLLILVIALF
- transcriptional activation domain activity: 59500

Sequence: TRTRKWWLRTVWACTWLIPSFLLSSVGRMKRPDVRLAWREKVTIFWLIFLFNG
- transcriptional activation domain activity: 68900

Sequence: VNGGGESDEDVKSKKDSKRKGKAIKGEDEEEEEEKPKANSKRGRKKVEENGAV
- transcriptional activation domain activity: 44700

Sequence: CTVVFLACTVVYGFMVVTSLLFHLSGFLFHVTTTFPFFFFFFFTLLFFLLHTF
- transcriptional activation domain activity: 38000

Sequence: MAPETADKPSRRRHIKSRSGCKNCKKRKVKCGEERPSCRNCSRRGSLCDLADE
- transcriptional activation domain activity: 20400

Sequence: GGIIMAFFLRLNFGLWGICIALFGLRGQAELPLLIHVQRHILSIYVIIPRWFW
- transcriptional activation domain activity: 56300

Sequence: VSYVLFVLMHRSTQPLVQHLLFKLRWLPFPFFITKHYYSWIISAYSFIGYRNL
- transcriptional activation domain activity: 56400

Sequence: MNRIKSARGRDDGSDGEVRILVVSGPRVREVEWSGVQPAWMAVEVVVVMECPR
- transcriptional activation domain activity: 36800
